# Where two headings read alike, the source gives them in different places.
# T1: DnaB (native) (Bacillus subtilis, UniProt P07908 1-472)
# T1 sequence: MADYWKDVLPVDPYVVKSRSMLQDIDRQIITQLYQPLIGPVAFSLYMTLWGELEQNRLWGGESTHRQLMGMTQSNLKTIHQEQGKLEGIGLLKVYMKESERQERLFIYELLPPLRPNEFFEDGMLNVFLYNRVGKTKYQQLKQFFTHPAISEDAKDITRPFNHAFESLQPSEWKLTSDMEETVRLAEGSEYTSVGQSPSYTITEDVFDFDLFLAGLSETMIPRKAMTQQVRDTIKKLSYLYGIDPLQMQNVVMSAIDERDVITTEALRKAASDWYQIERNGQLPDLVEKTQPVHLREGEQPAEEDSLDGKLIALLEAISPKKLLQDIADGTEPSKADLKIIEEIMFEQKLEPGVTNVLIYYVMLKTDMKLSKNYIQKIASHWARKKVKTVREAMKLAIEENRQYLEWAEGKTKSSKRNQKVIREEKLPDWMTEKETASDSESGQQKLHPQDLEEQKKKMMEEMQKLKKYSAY
# T2: DnaBN, DnaB(1-300) (Bacillus subtilis, UniProt P07908 1-300)
# T2 sequence: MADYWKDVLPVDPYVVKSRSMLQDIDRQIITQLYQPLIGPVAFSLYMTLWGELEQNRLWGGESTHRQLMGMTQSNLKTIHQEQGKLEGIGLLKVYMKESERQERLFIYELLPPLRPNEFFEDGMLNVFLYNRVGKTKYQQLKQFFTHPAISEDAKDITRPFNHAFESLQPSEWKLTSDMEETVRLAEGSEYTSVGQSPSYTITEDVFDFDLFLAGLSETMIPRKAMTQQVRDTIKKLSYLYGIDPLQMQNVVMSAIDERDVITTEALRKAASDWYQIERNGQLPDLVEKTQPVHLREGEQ
# Key:
# DnaB (native) [1] = molecular target: T1, DnaB (native); test: EMSA
# DnaBN, DnaB(1-300) [2] = molecular target: T2, DnaBN, DnaB(1-300); test: EMSA
# DnaBN, DnaB(1-300) [3] = molecular target: T2, DnaBN, DnaB(1-300); test: EMSA; remark: listed apart in the source
# DnaB (native) [4] = molecular target: T1, DnaB (native); test: EMSA; remark: listed apart in the source
# AUC [5] = molecular target: the molecule itself; test: AUC
# AUC [6] = molecular target: the molecule itself; test: AUC; remark: listed apart in the source
# DnaBN, DnaB(1-300) [7] = molecular target: T2, DnaBN, DnaB(1-300); test: EMSA; remark: listed apart in the source
binder,measurement,setting,value
dT90 (ssDNA) DNA: TTTTTTTTTTTTTTTTTTTTTTTTTTTTTTTTTTTTTTTTTTTTTTTTTTTTTTTTTTTTTTTTTTTTTTTTTTTTTTTTTTTTTTTTTT,binding result,DnaB (native) [1],binds
same,binding result,"DnaBN, DnaB(1-300) [2]",binds
TTTTTTTTTTTTTTTTTTTTTTTTTTTTTTTTTTTTTTTTTTTTT (ssDNA) [dT45],binding result,"DnaBN, DnaB(1-300) [3]",binds
same,binding result,DnaB (native) [4],binds
"DnaB(1-428), C-terminally truncated DnaB (domain or fragment, B. subtilis, UniProt P07908 1-428, looked up) MADYWKDVLPVDPYVVKSRSMLQDIDRQIITQLYQPLIGPVAFSLYMTLWGELEQNRLWGGESTHRQLMGMTQSNLKTIHQEQGKLEGIGLLKVYMKESERQERLFIYELLPPLRPNEFFEDGMLNVFLYNRVGKTKYQQLKQFFTHPAISEDAKDITRPFNHAFESLQPSEWKLTSDMEETVRLAEGSEYTSVGQSPSYTITEDVFDFDLFLAGLSETMIPRKAMTQQVRDTIKKLSYLYGIDPLQMQNVVMSAIDERDVITTEALRKAASDWYQIERNGQLPDLVEKTQPVHLREGEQPAEEDSLDGKLIALLEAISPKKLLQDIADGTEPSKADLKIIEEIMFEQKLEPGVTNVLIYYVMLKTDMKLSKNYIQKIASHWARKKVKTVREAMKLAIEENRQYLEWAEGKTKSSKRNQKVIREEKLP",stoichiometry N,AUC [5],4
"DnaBN, DnaB residues 1-300 (N-terminal domain plus the central domain) (domain or fragment, B. subtilis, UniProt P07908 1-300, looked up) MADYWKDVLPVDPYVVKSRSMLQDIDRQIITQLYQPLIGPVAFSLYMTLWGELEQNRLWGGESTHRQLMGMTQSNLKTIHQEQGKLEGIGLLKVYMKESERQERLFIYELLPPLRPNEFFEDGMLNVFLYNRVGKTKYQQLKQFFTHPAISEDAKDITRPFNHAFESLQPSEWKLTSDMEETVRLAEGSEYTSVGQSPSYTITEDVFDFDLFLAGLSETMIPRKAMTQQVRDTIKKLSYLYGIDPLQMQNVVMSAIDERDVITTEALRKAASDWYQIERNGQLPDLVEKTQPVHLREGEQ",Kd,AUC [6],500 nM
same,stoichiometry N,AUC [6],4
"DnaB(1-365), C-terminally truncated DnaB (domain or fragment, B. subtilis, UniProt P07908 1-365, looked up) MADYWKDVLPVDPYVVKSRSMLQDIDRQIITQLYQPLIGPVAFSLYMTLWGELEQNRLWGGESTHRQLMGMTQSNLKTIHQEQGKLEGIGLLKVYMKESERQERLFIYELLPPLRPNEFFEDGMLNVFLYNRVGKTKYQQLKQFFTHPAISEDAKDITRPFNHAFESLQPSEWKLTSDMEETVRLAEGSEYTSVGQSPSYTITEDVFDFDLFLAGLSETMIPRKAMTQQVRDTIKKLSYLYGIDPLQMQNVVMSAIDERDVITTEALRKAASDWYQIERNGQLPDLVEKTQPVHLREGEQPAEEDSLDGKLIALLEAISPKKLLQDIADGTEPSKADLKIIEEIMFEQKLEPGVTNVLIYYVMLK",stoichiometry N,AUC [5],4
dT135 (ssDNA) DNA: TTTTTTTTTTTTTTTTTTTTTTTTTTTTTTTTTTTTTTTTTTTTTTTTTTTTTTTTTTTTTTTTTTTTTTTTTTTTTTTTTTTTTTTTTTTTTTTTTTTTTTTTTTTTTTTTTTTTTTTTTTTTTTTTTTTTTTT,binding result,"DnaBN, DnaB(1-300) [7]",binds
same,binding result,DnaB (native) [1],binds
